Experimental data reported in patent publication US20240209089A1 (SUZHOU SMARTNUCLIDE BIOPHARMACEUTICAL, published 2024).

How the values were obtained:
[1] = target: T1, CD8α-Fc fusion protein (human); test: ELISA on coated CD8α-Fc, relative to C2-cHis control
T1 construct: also called CD8 α-Fc protein; CD8α-Fc tag antigen
Procedure: (§1) The CD8 α-Fc protein was transiently expressed by HEK293 and purified by protein A affinity chromatography. The plate was coated with the obtained CD8α-Fc protein in a concentration of 0.5 μg/well at 4° C. overnight, and then the gradient dilution series of the obtained anti-CD8α single domain antibody protein was added to react for 1 hour at room temperature. After washing, anti-his horseradish peroxidase labeled antibody was added to react for 1 hour at room temperature. After washing, a chromogenic solution was added, and an absorption value at 450 nm was read. The data processing and plotting analysis were performed by using software SotfMaxPro v5.4. […] Of the 10 selected antibodies (see Table 5 for details), the relative activities of different anti-CD8α single domain antibodies were compared by using C2-cHis as control, so as to reflect the affinity of the antibodies on CD8α. Of the 10 tested antibodies, C37, C42, C46, S5 and S36 have relatively high binding activity.

[2] = target: T2, human CD8α full-length protein (human, UniProt P01732 22-235); test: flow cytometry on MC38-CD8α cells, secondary antibody-PE
T2 construct: whole, on cells; The same entry is used for MC38-CD8α transfectants and for human CD8+ T cells from peripheral blood; the assay field says which cells; also called cell surface CD8α; MC38-CD8α cells
T2 sequence (P01732 22-235): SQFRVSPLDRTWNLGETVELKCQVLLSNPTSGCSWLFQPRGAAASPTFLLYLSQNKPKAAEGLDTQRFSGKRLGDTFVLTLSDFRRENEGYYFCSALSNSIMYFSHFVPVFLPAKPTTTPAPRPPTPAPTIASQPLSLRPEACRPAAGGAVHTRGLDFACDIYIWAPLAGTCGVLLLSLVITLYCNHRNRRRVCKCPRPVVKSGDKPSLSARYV
Procedure: Mouse colon cancer MC38 cell lines stable transfected with human CD8α full-length protein gene were constructed to obtain MC38 cells (MC38-CD8α cells) stably expressing human CD8α proteins on the cell membrane. Prior to use, the cells were cultured to >90% convergence. The anti-CD8α single domain antibody was used to perform flow cytometry on these cells for quantitative analysis of indirect immunofluorescence staining so as to determine the quantity of receptors on surface of each cell.
The cells were collected and suspended to a concentration of 2.5×10⁶ cells/mL. 200 μL of cell aliquot samples were mixed with 20 μL of primary antibody, and the obtained mixture was incubated for 30 min on ice. The cells were centrifuged, washed and re-suspended, then 5 μL of secondary antibody-PE conjugate was added, and then the above mixture was incubated for 30 minutes on ice. The cells were washed twice, re-suspended and underwent flow cytometry on BD FACSCelesta™. For each tube, at least 5×10⁴ events were collected. All the analyses were single colors, and PE was detected in […].

[3] = target: T1, CD8α-Fc fusion protein; test: ELISA on coated CD8α-Fc, anti-his-HRP, four-parameter fit
Procedure: as §1

[4] = target: T2, human CD8α full-length protein; test: competition binding on MC38-CD8 cells, displacement of ^125I-SNA006a, 4 °C, 2 h
Procedure: (§2) The 96-well cell suction filter plate was saturated with a binding buffer and dried in air before use.
(§3) After reaction for 2 hours at 4° C., the reaction solution in the suction filter plate was drained using auxiliary equipment of a vacuum pump and the suction filter plate, 200 μL of PBS buffer (0.01 M, pH=7.4) was added into each well and drained, and the cells were repeatedly washed for 6 times. After the filter membrane at the bottom of the suction filter plate was dried, the filter membrane at the bottom was collected, and a γ counter was used for measurement. Calculation and plotting were performed by using Prism 7.0 (GraphPad Software, Inc.), and the half inhibition concentration IC50 was calculated by nonlinear regression analysis. Four parallel samples were set at each experimental point, and the experiment was repeated twice. The result given in this experiment is an average value plus a standard deviation.

[5] = target: T3, CD8α-cHis fusion protein (UniProt P01732 22-182); test: BLI (ForteBio Octet), biotinylated antibody on SA sensor, CD8α-chis 6.25-100 nM
T3 construct: not shown: C-terminal His tag
T3 sequence (P01732 22-182): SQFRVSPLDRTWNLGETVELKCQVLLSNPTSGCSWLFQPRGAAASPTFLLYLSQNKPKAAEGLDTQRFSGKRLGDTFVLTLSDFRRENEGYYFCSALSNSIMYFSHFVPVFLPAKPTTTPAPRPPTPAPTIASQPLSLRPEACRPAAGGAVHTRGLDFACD
Procedure: The anti-CD8α single domain antibody-biontin was fixed on an SA biological sensor. Then, CD8α-chis with a concentration of 6.25-100 nM bound to a nano antibody and then dissociated. The binding dynamic variables of four antibodies C37, C42, C46 and S5 were evaluated and determined by using Octet Data Analysis version 9.0, including Kon, Koff and Kd.

[6] = target: T1, CD8α-Fc fusion protein; test: ELISA on coated CD8α-Fc, antibody after exchange into NaHCO3 buffer, relative to the uncoupled antibody as standard
Procedure: By using PD-10 column (GE), the buffer of the CD8α-cHis single domain antibody (including C37, C46 and S5) was changed to a NaHCO3 buffer solution with a certain pH, and p-SCN-Bn-NOTA (Macrocyclics, article No. B-605) was dissolved into DMSO with a concentration of 25 mg/mL, and the p-SCN-Bn-NOTA solution whose molar was twice that of lysine on the single domain antibody was added into the CD8α single domain antibody, the above materials reacted for a certain time period at room temperature, the conjugated product was purified by PD-10 column (GE) and concentrated by ultrafiltration.
The activity of the above CD8α-NOTA after labeling was determined by ELISA. The specific method is as follows: the CD8α-Fc fusion protein was placed in the coated plate in a concentration of 5 μg/well at 4° C. overnight. After blocking with 3% BSA at 37° C., samples subjected to gradient dilution (the uncoupled CD8α single domain antibody was a standard substance) were added to act for 1 hour at 37° C. Then, anti-his-HRP (purchased from Abcam Company) was added to react for 1 hour at room temperature. Then, a chromogenic solution was added, and the absorption value at 450 nm was read.

[7] = target: T2, human CD8α full-length protein; test: competition radioligand binding on MC38-CD8 cells, 2 h at 4 °C; unlabeled SNA006a varied against the tracer 125I-SNA006a
Procedure: as §2, §3

T1 sequence (chain, as listed by the source): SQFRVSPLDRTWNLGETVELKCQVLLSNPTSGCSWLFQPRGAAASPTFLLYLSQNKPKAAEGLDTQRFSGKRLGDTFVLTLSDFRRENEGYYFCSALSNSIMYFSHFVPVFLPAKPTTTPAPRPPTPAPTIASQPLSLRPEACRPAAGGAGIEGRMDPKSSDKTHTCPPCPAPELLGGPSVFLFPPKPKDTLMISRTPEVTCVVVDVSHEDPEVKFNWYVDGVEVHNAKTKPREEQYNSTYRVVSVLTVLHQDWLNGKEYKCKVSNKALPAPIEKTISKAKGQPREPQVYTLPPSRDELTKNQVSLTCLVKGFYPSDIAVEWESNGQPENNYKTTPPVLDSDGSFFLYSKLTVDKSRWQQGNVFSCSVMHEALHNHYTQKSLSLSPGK

Relative activity (%) [1]: 322%
Positive rate (%) [2]: 99.8%
EC50 [3]: 0.989 ng/mL
IC50 [4]: ~3 nM
Kd [5]: 0.644 nM
koff [5]: 0.000311 s⁻¹
kon [5]: 483000 M⁻¹ s⁻¹
Relative activity of CD8α-cHis-NaHCO3 (%) [6]: 76%
IC50 [7]: 3.02 nM
IC50 (read off the curve) [7]: ~3 nM
B1: C37-cHis antibody (VHH)
VHH: QLQLVESGGGLVQAGGSLRLSCAASGLTFEDYAIGWFRQAPGKEREGISCIRIYDGNTYSAESVKGRFTISSDNAKNQVYLQINTLKPEDTAVYYCAAGSYYSCSVYPDYDMDYWGKGTLVTVSS
notes: HEK293 construct; an E. coli preparation is also described; Biotinylated for the ForteBio assay; also called C37-his; SNA006a
